Test results: article PMC3942467

Target: recombinant C-terminal fragment (residues 284-707) of nucleolin (nucleolin-C) (UniProt P19338)
Assay: SPR; Biacore 3000; nucleolin-C amine-coupled on CM4 chip (~540 RU); FGF1 or FGF2 10-320 nM in PBS with 0.1 mg/ml BSA, 0.005% P20, pH 7.3, 25 C, 30 ul/min; no fit to 1:1 Langmuir, constants by Interaction Map (two parallel processes); apparent/approximate

Chain of UniProt P19338 (P19338 284-707): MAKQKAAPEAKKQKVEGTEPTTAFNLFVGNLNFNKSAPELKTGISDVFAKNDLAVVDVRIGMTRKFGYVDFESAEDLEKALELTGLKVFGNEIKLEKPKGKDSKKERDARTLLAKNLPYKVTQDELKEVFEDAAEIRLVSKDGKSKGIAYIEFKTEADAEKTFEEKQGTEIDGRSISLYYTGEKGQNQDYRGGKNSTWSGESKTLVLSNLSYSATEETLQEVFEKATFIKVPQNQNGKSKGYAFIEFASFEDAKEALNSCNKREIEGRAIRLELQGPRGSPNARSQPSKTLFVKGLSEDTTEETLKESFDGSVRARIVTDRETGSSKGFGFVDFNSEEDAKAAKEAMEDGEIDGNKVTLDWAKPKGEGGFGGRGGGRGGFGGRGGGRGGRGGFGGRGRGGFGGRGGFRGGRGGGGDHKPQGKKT

KD, stronger of two parallel binding processes (apparent): 40 nM
KD, weaker of two parallel binding processes (approximate): 480 nM
ka, stronger of two parallel binding processes: 18000 M⁻¹ s⁻¹
ka, weaker of two parallel binding processes: 1.7e+06 M⁻¹ s⁻¹
kd, stronger of two parallel binding processes: 0.0007 s⁻¹
kd, weaker of two parallel binding processes: 0.83 s⁻¹
Substance: recombinant FGF1, truncated form (Ala-FGF1 21-154), wild type (ligand)
